Test results published in publication PMC8324772.
pKd: −log10 of the molar value.

How the values were obtained:
[1] = biological target: Klebsiella quasipneumoniae Qmp M1-977 TolC (KqTolC), recombinant, C-terminal His6 (Klebsiella quasipneumoniae); experiment: cryo-EM structure; KqTolC-KlebC_(1-254) mixed in β-OG and transferred into amphipol A8-35 without cross-linking; only KqTolC resolved; 3.4 Å
[2] = biological target: Klebsiella quasipneumoniae Qmp M1-977 TolC (KqTolC), recombinant, C-terminal His6 (Klebsiella quasipneumoniae); experiment: stopped-flow fluorescence (pre-equilibrium, tryptophan emission); 0.5 µM KqTolC with excess KlebC_(1-254), pseudo-first-order, 25 °C; kapp from single exponential fits, kon from the gradient of kapp against concentration
[3] = biological target: Klebsiella quasipneumoniae Qmp M1-977 TolC (KqTolC), recombinant, C-terminal His6 (Klebsiella quasipneumoniae); experiment: ITC + other: stopped-flow fluorescence; koff not measured (too slow): estimated from the Kd by ITC and the kon by stopped-flow, assuming Kd = koff/kon
[4] = biological target: Klebsiella quasipneumoniae Qmp M1-977 TolC (KqTolC), recombinant, C-terminal His6 (Klebsiella quasipneumoniae); experiment: ITC; KlebC constructs in the syringe (76-89 µM), TolC trimer in the cell (5-7.6 µM); 25 mM Tris-HCl pH 7.5, 1% (w/v) β-OG; no feedback mode, 750 s between injections; single set of identical sites
[5] = biological target: Klebsiella quasipneumoniae Qmp M1-977 TolC (KqTolC), recombinant, C-terminal His6 (Klebsiella quasipneumoniae); experiment: stopped-flow fluorescence (pre-equilibrium, loss of Trp-to-AEDANS FRET); TolC in excess, pseudo-first-order, 25 °C; single exponential fits
[6] = biological target: Klebsiella quasipneumoniae Qmp M1-977 TolC (KqTolC), recombinant, C-terminal His6 (Klebsiella quasipneumoniae); experiment: stopped-flow fluorescence (pre-equilibrium, loss of Trp-to-AEDANS FRET); Q204C^AEDANS KlebC_(1-254) in excess, pseudo-first-order, 25 °C; single exponential fits
[7] = biological target: Klebsiella quasipneumoniae Qmp M1-977 TolC (KqTolC), recombinant, C-terminal His6 (Klebsiella quasipneumoniae); experiment: equilibrium fluorescence (Trp-to-AEDANS FRET within KlebC); 1 µM Q204C^AEDANS KlebC_(1-254) without and with 1 µM KqTolC trimer; excitation 280 nm, FRET signal at 490 nm, 25 °C
[8] = biological target: TolC of Klebsiella quasipneumoniae Qmp M1-977, endogenous (Klebsiella quasipneumoniae (endogenous in K. quasipneumoniae Qmp M1-977))

Klebsiella quasipneumoniae Qmp M1-977 TolC (KqTolC), recombinant, C-terminal His6 (natural protein)
stoichiometry N [1]: 3

KlebC_(1-254) (domain or fragment)
kon [2]: 1900 M⁻¹ s⁻¹ | koff [3]: 5e-05 s⁻¹ | pKd [4]: 7.46 | dH [4]: 30.6 kcal/mol | stoichiometry N (binding sites per TolC trimer) [4]: 0.9

Q204C^AEDANS KlebC_(1-254) (domain or fragment)
kon [5]: 6700 M⁻¹ s⁻¹ | kon [6]: 2900 M⁻¹ s⁻¹ | decrease of the Trp-to-AEDANS FRET signal at 490 nm upon addition of equimolar TolC trimer [7]: 77%

KlebC_(51-254) (domain or fragment)
pKd [4]: 6.43 | dH [4]: 20.8 kcal/mol | stoichiometry N (binding sites per TolC trimer) [4]: 1.34 | growth of K. quasipneumoniae on LB-Agar with 1 mg ml^−1 Rhodamine 6G after serial dilution in 1 or 10 µM KlebC (51-254) [8]: 4 log
